Measurements published in a protein production outcome set (Wang et al. 2014).

Assay: label from the status in PepcDB records

Sequence	protein production
LRASEESFRQAFEYAPSGMAIAEMGGDQHGRILRTNDALCRLLGRPASAMRRYSFSDLVHPEDIGTLLRTSAEGGRAELRLGRRDGTYVWVSLRNSVVADAADGPRFLLTHVEDIEERKRRELQLAHRASHDSLTGLPNSAELRSRLSARLCRRPQSAELGAVESLDAAYAHGQYTTEHPAAYDTSGHGEQPGHGHGFDFTQGPGPYDAFDHHVHTVAPEGQTDDGTKGLAVLFCDLDGFKSINDRFGH	failed
LYATLSGVSLALADSADRRILLQTVCDVCVREAGFEMAWVGLLDADEKRVEVAALSRGERASMPGELPGHAEDAQAPGPVSRALRSRAAQVSNDAQSDPALKPWHGALSRQGIRSLLVVPLLVRQQVAGALALHAGEEGFFDQSRRALFELMAREIGRGLERHDALERSHRAETELAFLAQ	failed
MFLKKKLSAGKSVVGTMLNLVYNPDIVRIYAEAGLDYFIVDCEHAAYTFREINHLVSVAKNAGVSVLVRIPQVDRAHVQRLLDIGAEGFMIPGVQSAETMRETVRLAKYPPLGERGVGGSIVTDFKPVNWAEWVQERNDEIFIMAQIEHVKAVEDIDSILAVQGVDAVIFGPRDLSNDLGIIGQTEHPKVYECYEKVYRAADRQGVVKGFFTAADAAKMGWAVERGAQMLLWSGDVAALQTYTAKGVKTIKELPGFNP	not failed
MTTGPALSSSEEGLMSEMPPAWCHTARADHSTPGTSPEMIPDTQGHWMPLRSRGLGALPGAFQAPQPLLSRLRHRLAPPRIVGTVSCRRLRTIVALGAARDSCTVGTQGRPGNSDLPAFPTSQVVRGKMGPGSQRTLVLLLLLLASPGARAFQSCLNKQQLLTTVRQLQQLLKGQETRFTEGIRNMKSRLTALQNTVSKMTPDAPPVSCPALDAPPNGKKFGSKYLVDHEVHFTCNPGFQLVGPSSVVCLANGTWTGEQPRCRDTSECSSQPCHNGGTCVEGVHHYRCICPPGKTGNRCQHQTQAAAPGGVAGDSAYSRAPRCAQVEREQHCSCEAGFHLSGTAGGHSVCQDVNECEIYGQEGRPRLCMHACVNTPGSYRCTCPSGYRILADGKSCEDVDECAGPQHMCPRGTTCINTGGGFQCVNPECPEGSGNISYVKTSPFQCERNPCPMDSRPCRHLPKTISFHYLSLPSNLKTPITLFRMATASVPGHPGPNSLRFGIVGGNSRGHFVMQRSDRQTGELILIQTLEGPQTLEVEVDMSEYLERSFQASHVSKVTIFVSRYDF	failed
MILFDGMYSLGGVILSLLALMGSIYINKKDYEKYPFGKKMIEPLIVIIKSLAIFIMCIYSLTGSIKDLINGGNEVQYGYALIYALISTLGCGIAYFFLKKKGKAINSSLINIESSQWLMDALLSMGVLVGFLIANIIKHTEFIWFNRYLDPLMVIICSSVFIKMPIKSFGDGLKELLEFKADDSITLEIDKLVEGIEREYNFEDTITRVSKTGNDLRIEIDFIYNEESNIKALDEMDSLREKIFNSLSHINYEKWLNVSFTKDKKWAI	failed
MSLTEKFRPTLKDVARQAGVSIATASRALADNPAVAASTRERIQQLASDLGYRANAQARALRSSRSNTIGVIVPSLINHYFAAMVTEIQSTASKAGLATIITNSNEDATTMSGSLEFLTSHGVDGIICVPNEECANQLEDLQKQGMPVVLVDRELPGDSTIPTATSNPQPGIAAAVELLAHNNALPIGYLSGPMDTSTGRERLEDFKAACANSKIGEQLVFLGGYEQSVGFEGATKLLDQGAKTLFAGDSMMTIGVIEACHKAGLVIGKDVSVIGFDTHPLFALQPHPLTVIDQNVEQLAQRAVSILTELIAGTVPSVTKTTIPTALIHRESIINSTLRKEGHHHHHH	not failed
MRKLDICIKSGLHFRTHRQHPDDDSVKTLTLECVDPQMVPVPRHWGRLAHRLLERAMTQATRPLPPPDGMGPTYRKILWRLIPFLFVCNLFNYLDRVNVGFAKLQMLRDLGMSQTVYGLGAGIFFIGYLACGVPSNLILQRIGARRWVAIMMVSWGLLSTCLLFVRTPAGFYTLRLLTGAAEAGFFPGILLYLTRWFPRDRHGRVTTVFMSAIPISGVLGGPLSGWILGYFSAGQGGLAGWQWMFLLQGLPTVLLGNGVWFLLSDGVQEASWLNPQEKQALARVLADDEAGKPAGASTSLRAVLCNPAVWLLGTVYFCIQSGVYAINFWLPSIIQDSGVTDPVRIGLMSAIPYLAAAVFMVLMGRSADRRGERRWHLVIPLLMGAAGLCIAASVTDNLGLALFGMTLATMGAVSGLPLFWPLTNGFLTAAAAAGGLALINSTGQVAGFVSPYLVGWIKDTTHSTQLALYVLAGAMLLGAALVLRVPACAVNQ	failed
MYLKRSDGPSPGTLSLAARLTVLSTLATTGVLLFAIVFQFLALVSDLEFEDNDFIIDKIRVIEAIIVRYPEDRVHLEQEVQWEGSMREDSRYLVRIADARKNIIMETRGMDRIAPPAMFPRPARDTHAIGRGKKLKTPEGRVYLVNAAWTDGGRAPDSRQIQVALDVTEEEEMLEGYKQKMAFVFLAGLFLSAGLNVVVVRRGLRPLVQLTETAGRIDVTTLHERIDARVWPRELARFAAAFDAMLTRLESSFERLESSSANLAHEIRTPLNILRGEAEVTLSRARSPEEYRRVIESSLEEYERLSRLIDNILFLARAEQRIEPVPLDAGHELELLQDYYGTLAEEKGIAISCTGEGTISADPLLFQRAVGNVLSNAIRYTPAGGTITVSIDRADDGAALLTVIDTGIGISADDLPRVFDRFYRSSEARTLNAQGTGLGLAIVRSIMELHRGSVTIDSAPGRGTAVTLRFPLASQ	failed
MGHHHHHHSHMANGTAGTKVALRKTKQAAEKISADKISKEALLECADLLSSALTEPVPNSQLVDTGHQLLDYCSGYVDCIPQTRNKFAFREAVSKLELSLQELQVSSAAAGVPGTNPVLNNLLSCVQEISDVVQR	failed
GSSGSSGDKKAYFYHSSFQILNVEYTEALNSPATHEYRTLSERIEAMITDEFRGSSLKSEFIRTHVVKLRKEGTGVVADVVMKFRSSKRNNRKVMKTRIQSVLRRLSSSGNLEIAPSNEITSLTDQDT	not failed
MTESFTRRERLRLRRDFLLIFKEGKSLQNEYFVVLFRKNGLDYSRLGIVVKRKFGKATRRNKLKRWVREIFRRNKGVIPKGFDIVVIPRKKLSEEFERVDFWTVREKLLNLLKRIEG	not failed
MTGVFLPPLPPSLRLQIKTMAESILPNAIRSQSQPQAFVQVEVWIRRLVWKIVIATVLLMAVGSATRVMNAGLACPDWPLCYGQWVPSQQMNLQVFLEWFHRLDAALIGFSTLILVGLSWWFRRVLPKWLPWATLGSLALILVQGLLGGLTVIELLRFDIVTAHLGTAMAFLGSLVIIGLCLMPYQSNQTAGKLRPVALASTTIIYLQCLLGGLVGSQWAAHQCLAIAGTQFCQVLHSHLLGVLPTVLGVGLTFWCTRRTPALNPFLRQLGNGALALLGGQILLGVATLKLHLQIEPLTVAHHTVGICLWATLLAIAVLAVRDHRPTAPITS	failed
MAPLLSLCMIVKNEAHQLRRCLQSVQPWVDEIIIVDTGSTDGTIAIACEFTPHVHAVAWQGDFAAARNAALAQATGEWVFYIDADEELVVTDAHWQDQLTAPGAHAINQWSLLRREQSSDRNWSEFWNVRFGRRFPDLHFAGALHEQLCYREREAVVGELQGVYLIHHNQQSQEQFLAKIRDRNIPILETMVQQGDRRLQNLVCLGDHYAACGDSDRSQAWYEQALEEIASAVEQGILPRETTWLRHLLFWVSYRAFEAKDYETAQYYLSYGLRFFDRYPPLLYVAGLFVFELGLPRGALPYFHRCLDLFEAGSYDRTEPFDRQWMTTQPAYSLGYTYMTLQERDRAIAYFQKTLKFNPDYPPAQMYLEQLLRASANQGLEHHHHHH	failed
MNTLFFSRQQYWLALIFGCLLVFLAASLGHGQWLDYAQRVATLDEPLSRLRWIVGDISEVAFYKHELPALGLLLGACLAHWAQLRGYRWQGFAICYGSGLWPWVFTSSLLGLLLSHVLWGWTLASGTWQPTFVAFVSLPAAMVLLFGAGWRVTITGALLGALLVTPAGLLMVNYLCYPLQLPVVVGNVSGMAVASVVAFILCKRFPSWVRQCGEPTVVAPVVNQPDYGVVWTLRRVLADFSEAPFFGNELASLGLLLGVLLAYLLSPAALSYGSMLVMQMVAGQALASLVGVVLWRGQWKARGWYPTYIPIVSIVPAAVLTHGGSWQVVVASAVLGALVAPPLAVAITQRLPAYVHGYIGNVVSMAICTLGIVPVVGLLVGGEA	failed
MYYVIFAQDIPNTLEKRLAVREQHLARLKQLQAENRLLTAGPNPAIDDENPSEAGFTGSTVIAQFENLQAAKDWAAQDPYVEAGVYADVIVKPFKKVF	not failed
MKVCYYYDGDVGNYYYGQGHPMKPHRIRMTHNLLLNYGLYRKMEIYRPHKANAEEMTKYHSDDYIKFLRSIRPDNMSEYSKQMQRFNVGEDCPVFDGLFEFCQLSTGGSVASAVKLNKQQTDIAVNWAGGLHHAKKSEASGFCYVNDIVLAILELLKYHQRVLYIDIDIHHGDGVEEAFYTTDRVMTVSFHKYGEYFPGTGDLRDIGAGKGKYYAVNYPLRDGIDDESYEAIFKPVMSKVMEMFQPSAVVLQCGSDSLSGDRLGCFNLTIKGHAKCVEFVKSFNLPMLMLGGGGYTIRNVARCWTYETAVALDTEIPNELPYNDYFEYFGPDFKLHISPSNMTNQNTNEYLEKIKQRLFENLRMLPHLEHHHHHH	failed
MRTPLIDRRDFLRAAGIGFAAVMAPSAWAKTLAANAVFATAFVKRDGSFGAAILSEAGKVLHAIDLPDRGHDVTFDPISKRSVVFARQPGTFAVVFDHSGRDAPQTVASISGRHFFGHGVFSPDGALLYATENDFDNAAGVIGIYDARAKFSRVGEFPTYGMGPHELLLLGDGRTMAVANGGIETHPDYGRAELNIATMKPSYVLIDRVTGDLIEKHELPASLHQLSIRHMDTDPSGTVWFGCQYRGPGTDRPLLVGRAVRGKELQLLDMPQDVLSGFRNYIGSVAANLSAGSVAVSSPEGNSLVVIDAASGRVVSSSALVEVCGLAPDGSGFIATTGAGEIIEGSGATRSEPDYVWDNHMLRIERA	failed
MRPKVSVALATYNGEKYIEEQLESIIKQTRAPDELVICDDCSNDETINIITKKIKNAHFDVKLVSNDKNIGYVQNFSKALEMSSGDIVFLCDQDDVWLSDKIEFIINKFNTRPDIQLLIHDVDYCKEDLTPIGQTKLQRMESNFDIESDYVVGMATAVRRSFLVHCLPVPSAPEVTHDEWLHDCARVLGCKGIVREVLALYRRHSLNVTAPSRLNVDFVTTRHYFGNESLAFLKLFRMETDLGSPDISPLVQWLDSRKMVLLDNGFSSEDRINTFIQYEEKRLRARNSRQSILRLDRWKRLFPIYDLYRSGGYHYYCGWKSALKDLLRTYALEHHHHHH	not failed
MPELILKPCEPVRSALKQDVAALEAPPTGGNVDKSATTSNSVTPATSAAPSPAPASEKGEDKDKDSEKEKDKTSAEKSEVKQEQEAEEDKKPGDVKQENPVEEAAGDTKPSDAEVKTEVAKTEPKEETKDPEVKEEPKTEEKEKEKVDDKKPIPPTTVIDDDDDDVMIVKEDGELEKPSASSPKDQKAVAAATSAATGATGK	failed
MAFESAGAGELFLLGRLLFGGVLAFMGLNHFQNAGQMAPYAEAKGLPAPVASVYGSGGLLLVSGVLVILGAYPVIAAGALATFLVASAVMMHNFWAVPDDQMQDEMTQFLKNIALAGGALSLLAVAGTSWPYTVGLSLF	failed
